Publication PMC5325305, “Structural and biochemical studies on Vibrio cholerae Hsp31 reveals a novel dimeric form and Glutathione-independent Glyoxalase activity” (PLoS ONE, 2017)

Columns and labels:
[1] = system: Cc1cc(=O)oc2cc(NC(=O)[C@H](C)N)ccc12; assay: purified protein; details: pH 8.0, 37°C, 20 mM Tris, 1 mM dithiothreitol, 3% dimethyl sulfoxide
CC(=O)C=O = assay: purified protein; details: glutathione-independent, 100 mM sodium phosphate pH 7.5, 1 mM EDTA, 1 mM DTT (printed DDT), 37°C, text lists Km and Vmax values in swapped order, assigned by unit

Work on VcHsp31 (Vibrio cholerae) yielded a Km [1] of 112.5 µM, a kcat [1] of 0.00128 s⁻¹ and a Km (CC(=O)C=O) of 250.8 µM. It also gave a kcat (CC(=O)C=O) of 0.6628 s⁻¹.
